These are literature values, as cited in paper PMC8296306.

The target of one data set is Cxcl1/KC (Mus musculus) (UniProt P12850).
In data set [1] the target is Cxcl2/MIP2 (Mus musculus) (UniProt P10889).

By Kd is commonly meant the equilibrium constant for the complex coming apart. As to Cxcl1/KC (from UniProt P12850), in the data set with Cxcl1/KC (Mus musculus), the Kd is 35 µM.
On to Cxcl2/MIP2 (from UniProt P10889), for which the dissociation constant (Kd) in data set [1] was 15 µM.
